Results reported in the Human Domainome abundance scans (Beltran et al. 2025).
± gives the uncertainty stated by the source.

B1: GAS2-like protein 1, residues 209 to 276; numbered along this chain, Q99501 (parent)
chain: DELVREILGRCTCPDQFPMIKVSEGKYRVGDSSLLIFVRVLRSHVMVRVGGGWDTLEHYLDKHDPCRC

Variants of: B1
Test: abundance fitness (aPCA) (normalised: wild type 0, dead -1); higher = more abundant; growth selection in yeast, the domain comes from the species named
Details: Homo sapiens

Abundance fitness: each site, then its substitutions
R5: P -0.947 ± 0.21 | Q 0.084 ± 0.063 | S 0.093 ± 0.053 | T -0.059 ± 0.053 | V -0.584 ± 0.12 | W -0.126 ± 0.053 | Y -0.185 ± 0.099
E6: C -0.701 ± 0.14 | D -0.136 ± 0.071 | F -0.708 ± 0.15 | G -0.347 ± 0.074 | H -0.452 ± 0.1 | I -0.521 ± 0.15 | K -0.151 ± 0.057 | L -0.446 ± 0.042 | M -0.309 ± 0.069 | N -0.431 ± 0.23 | P -0.864 ± 0.1 | Q -0.071 ± 0.053 | R -0.165 ± 0.045 | S -0.205 ± 0.044 | T -0.141 ± 0.055 | V -0.642 ± 0.1 | W -0.821 ± 0.093 | Y -0.694 ± 0.19
I7: C -0.365 ± 0.069 | D -0.704 ± 0.36 | E -0.128 ± 0.056 | G -0.763 ± 0.082 | H -0.473 ± 0.076 | K -0.367 ± 0.12 | L -0.012 ± 0.034 | M -0.273 ± 0.075 | N -0.74 ± 0.13 | P -1.04 ± 0.17 | Q 0.069 ± 0.046 | R -0.85 ± 0.097 | T -0.38 ± 0.078 | V -0.219 ± 0.049 | W -0.748 ± 0.12 | Y -0.275 ± 0.14
L8: A -0.352 ± 0.054 | C -0.47 ± 0.14 | D -0.702 ± 0.25 | E -0.737 ± 0.089 | F -0.704 ± 0.12 | G -0.819 ± 0.088 | H -0.436 ± 0.2 | I -0.002 ± 0.063 | K -0.948 ± 0.13 | M -0.254 ± 0.1 | N -0.793 ± 0.13 | P -0.819 ± 0.24 | Q -0.323 ± 0.12 | R -0.754 ± 0.063 | S -0.532 ± 0.058 | T -0.414 ± 0.058 | V -0.071 ± 0.035 | W -0.886 ± 0.12 | Y -1.05 ± 0.19
G9: A 0.007 ± 0.061 | C -0.54 ± 0.088 | D 0.107 ± 0.05 | E 0.03 ± 0.063 | F -0.399 ± 0.097 | H -0.221 ± 0.071 | I -0.572 ± 0.1 | K -0.12 ± 0.067 | L -0.445 ± 0.054 | M -0.127 ± 0.065 | N -0.076 ± 0.07 | P -0.818 ± 0.11 | Q 0.061 ± 0.066 | R -0.204 ± 0.043 | S 0.077 ± 0.031 | T -0.346 ± 0.056 | V -0.587 ± 0.044 | W -0.71 ± 0.073
R10: A -0.311 ± 0.052 | C -0.72 ± 0.11 | E -0.386 ± 0.1 | F -0.448 ± 0.067 | G -0.432 ± 0.077 | H -0.013 ± 0.051 | I -0.766 ± 0.14 | K -0.135 ± 0.063 | N -0.234 ± 0.062 | P -0.863 ± 0.16 | Q -0.088 ± 0.071 | S -0.318 ± 0.05 | T -0.111 ± 0.053 | V -0.747 ± 0.099 | W -0.728 ± 0.11 | Y -0.564 ± 0.13
C11: A -0.618 ± 0.084 | D -0.84 ± 0.29 | E -1 ± 0.2 | F -0.848 ± 0.2 | H -0.966 ± 0.26 | I -1.08 ± 0.33 | K -0.949 ± 0.13 | L -0.895 ± 0.083 | M -0.771 ± 0.15 | P -1.17 ± 0.35 | Q -0.986 ± 0.26 | R -0.932 ± 0.086 | S -0.961 ± 0.13 | T -0.882 ± 0.12 | V -0.752 ± 0.087 | W -1 ± 0.15 | Y -0.892 ± 0.12
T12: C -0.247 ± 0.047 | D -0.797 ± 0.15 | E -0.381 ± 0.063 | H -0.542 ± 0.13 | I -0.313 ± 0.069 | K -0.169 ± 0.1 | L -0.664 ± 0.058 | M -0.419 ± 0.098 | N -0.355 ± 0.11 | P -0.749 ± 0.14 | Q -0.193 ± 0.077 | S -0.181 ± 0.043 | V -0.267 ± 0.041 | W -0.831 ± 0.2 | Y -0.8 ± 0.19
C13: A -0.974 ± 0.19 | D -0.752 ± 0.12 | E -0.726 ± 0.2 | F -0.894 ± 0.13 | G -0.682 ± 0.078 | H -0.874 ± 0.28 | I -0.304 ± 0.1 | K -1.13 ± 0.26 | L -0.719 ± 0.072 | M -0.786 ± 0.15 | P -0.972 ± 0.24 | Q -0.869 ± 0.15 | R -0.851 ± 0.087 | S -0.728 ± 0.071 | T -0.817 ± 0.15 | V -0.306 ± 0.074 | W -0.922 ± 0.12 | Y -0.744 ± 0.14
P14: A -0.142 ± 0.063 | C -0.439 ± 0.11 | F -0.509 ± 0.17 | G -0.502 ± 0.079 | I -0.336 ± 0.073 | K 0.016 ± 0.056 | M -0.457 ± 0.076 | N -0.424 ± 0.12 | Q -0.161 ± 0.074 | R -0.147 ± 0.045 | S -0.162 ± 0.049 | T -0.136 ± 0.053 | V -0.213 ± 0.05 | W -0.816 ± 0.12
D15: A 0.04 ± 0.044 | C -0.188 ± 0.045 | E 0.101 ± 0.052 | F -0.259 ± 0.06 | G -0.379 ± 0.1 | H 0.017 ± 0.082 | I 0.014 ± 0.058 | K 0.034 ± 0.053 | L -0.058 ± 0.034
